Measurements: publication PMC3068679

What was measured:
[1] = target: T1, MBP-Rv3124-His6 (MoaR1) (Mycobacterium tuberculosis (gDNA; strain H37Rv?)) (UniProt O05797); test: competition
T1 sequence: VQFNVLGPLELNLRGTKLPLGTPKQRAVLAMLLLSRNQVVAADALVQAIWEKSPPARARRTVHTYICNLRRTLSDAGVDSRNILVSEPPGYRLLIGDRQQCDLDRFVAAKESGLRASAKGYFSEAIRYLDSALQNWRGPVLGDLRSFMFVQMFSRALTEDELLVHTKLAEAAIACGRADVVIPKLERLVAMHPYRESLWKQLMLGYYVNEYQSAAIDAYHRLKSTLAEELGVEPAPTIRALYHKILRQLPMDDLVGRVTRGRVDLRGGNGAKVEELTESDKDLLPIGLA

[2] = target: T1, MBP-Rv3124-His6 (MoaR1) (Mycobacterium tuberculosis (gDNA; strain H37Rv?)); test: EMSA

With “ATGGAGCTACCATATCAGGCAGCGTAGGCGTACTCATTTTCCTATCATCTTTTCGATCCTCCACTTTGGACGCAGTCGGTTAGAGCGCCTCAAGAGAGTTTCGTACAAGGGTTAACTAACAATCGTTACCGAAATGCATCGGCGCATCGTGGCGCAGCGCATGAGCCTGCGTTTATGGCGCGTTGTTAGGGCGGAATCCGACCACTCATGTGCGAGCTTTCGTT (double strand) [Rv3109pro (222 bp)]” the binding [1] was “binds” and the binding [2] was “binds”.
